The values below come from article PMC11671767, “GENOMES UNCOUPLED PROTEIN1 binds to plastid RNAs and promotes their maturation”.

Series [1] addresses T1, GUN1-PS (Arabidopsis thaliana, UniProt Q9SIC9 232-918).
T1 sequence: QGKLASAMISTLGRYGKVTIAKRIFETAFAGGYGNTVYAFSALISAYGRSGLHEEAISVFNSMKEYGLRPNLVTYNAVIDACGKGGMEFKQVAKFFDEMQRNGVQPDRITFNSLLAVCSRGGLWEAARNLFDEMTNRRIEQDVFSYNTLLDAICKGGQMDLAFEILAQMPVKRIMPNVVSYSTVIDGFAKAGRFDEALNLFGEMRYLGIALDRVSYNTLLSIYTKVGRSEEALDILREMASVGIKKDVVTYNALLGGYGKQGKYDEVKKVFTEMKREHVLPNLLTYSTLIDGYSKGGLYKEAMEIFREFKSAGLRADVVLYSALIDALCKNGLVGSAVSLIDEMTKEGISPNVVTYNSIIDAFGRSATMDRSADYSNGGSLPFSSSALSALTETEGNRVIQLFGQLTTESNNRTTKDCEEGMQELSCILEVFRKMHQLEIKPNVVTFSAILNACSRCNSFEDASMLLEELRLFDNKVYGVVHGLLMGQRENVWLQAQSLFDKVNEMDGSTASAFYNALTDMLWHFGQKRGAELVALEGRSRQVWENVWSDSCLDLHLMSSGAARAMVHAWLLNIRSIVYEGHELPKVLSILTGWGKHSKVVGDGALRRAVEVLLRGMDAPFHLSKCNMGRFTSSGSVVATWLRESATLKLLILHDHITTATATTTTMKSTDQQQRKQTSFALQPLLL
Nature of the series: EMSA; binding at 37 C, gel at room temperature; similar to RNA1; 5x buffer (4 ul per reaction): 50 mM Tris-HCl pH 7.5, 50 mM NaCl, 200 mM KCl, 5 mM MgCl2, 5 mM EDTA, 5 mM DTT, 0.25 mg/ml BSA, 5% glycerol; 30 min at 23 C; 5% native PAGE, 0.5x TBE, 4 C. The settings on record: protein: recombinant; tags: N-terminal TRX-His.

Series [2] addresses T1, GUN1-PS. Nature of the series: competition; vs Cy5-23S_104856, 5-50x; reduces the weak shift; 5x buffer (4 ul per reaction): 50 mM Tris-HCl pH 7.5, 50 mM NaCl, 200 mM KCl, 5 mM MgCl2, 5 mM EDTA, 5 mM DTT, 0.25 mg/ml BSA, 5% glycerol; 30 min at 23 C; 5% native PAGE, 0.5x TBE, 4 C. The settings on record: protein: recombinant; tags: N-terminal TRX-His.
For series [3], the target named is T1, GUN1-PS. Nature of the series: EMSA; 100-600 nM protein; 5x buffer (4 ul per reaction): 50 mM Tris-HCl pH 7.5, 50 mM NaCl, 200 mM KCl, 5 mM MgCl2, 5 mM EDTA, 5 mM DTT, 0.25 mg/ml BSA, 5% glycerol; 30 min at 23 C; 5% native PAGE, 0.5x TBE, 4 C. The note with it: protein: recombinant, tags: N-terminal TRX-His.
Series [4] deals with T1, GUN1-PS. Nature of the series: competition; vs Cy5-trnG.1, 5-50x; 5x buffer (4 ul per reaction): 50 mM Tris-HCl pH 7.5, 50 mM NaCl, 200 mM KCl, 5 mM MgCl2, 5 mM EDTA, 5 mM DTT, 0.25 mg/ml BSA, 5% glycerol; 30 min at 23 C; 5% native PAGE, 0.5x TBE, 4 C. The settings on record: protein: recombinant; tags: N-terminal TRX-His.
Series [5] addresses T1, GUN1-PS. The series is described as follows: EMSA; binding at 37 C, gel at room temperature; no clear shift; 5x buffer (4 ul per reaction): 50 mM Tris-HCl pH 7.5, 50 mM NaCl, 200 mM KCl, 5 mM MgCl2, 5 mM EDTA, 5 mM DTT, 0.25 mg/ml BSA, 5% glycerol; 30 min at 23 C; 5% native PAGE, 0.5x TBE, 4 C. The note with it: protein: recombinant; tags: N-terminal TRX-His.
Series [6] has as its target T1, GUN1-PS. Nature of the series: competition; vs Cy5-ndhG, 5-50x; 5x buffer (4 ul per reaction): 50 mM Tris-HCl pH 7.5, 50 mM NaCl, 200 mM KCl, 5 mM MgCl2, 5 mM EDTA, 5 mM DTT, 0.25 mg/ml BSA, 5% glycerol; 30 min at 23 C; 5% native PAGE, 0.5x TBE, 4 C. The note with it: protein: recombinant; tags: N-terminal TRX-His; hairpin loop (predicted).

With GGACCGAAUGAUCUAUCUCU (ssRNA) [Kim_RNA3 (BLRP mut)], the binding result with GUN1-PS [1] was “no binding”. For AUUCUUAUGUGGCAGUCUCUAGUCCACUAGCUUUUG (ssRNA) [nonspecific competitor for 23S and ndhG], the binding result with GUN1-PS [2] was “binds”. Take AGAAAAAAAUCUGUUGAUAAAUGAA (ssRNA) [ndhG_118454]: the binding result with GUN1-PS [3] (hairpin loop (predicted)) is “binds”.

Take AUUUGGGAAUUUCUCCAUCCAUCAU (ssRNA) [trnG.1 unlabeled]: the binding result with GUN1-PS [4] is reported as “binds”. For GGAAAUCCGUCGAUAUCUCU (ssRNA) [Kim_RNA1 (BLRP)], in the series with GUN1-PS [5], the binding result is “no binding”. Take GCAUCUGAAUUUCAUAACCAAUCUCGAU (ssRNA) [nonspecific competitor for trnG.1]: in the series with GUN1-PS [4], the binding result was “no binding”.

In the case of AGAAAAAAAUCUGUUGAUAAAUGAA (ssRNA) [ndhG_118454 unlabeled], in the series with GUN1-PS [6], the binding result is recorded as “binds”. On to AUUUGGGAAUUUCUCCAUCCAUCAU (ssRNA) [trnG.1], for which the binding result with GUN1-PS [3] is on record as “binds”.
